Laboratory results published in the Immune Epitope Database (IEDB).
pKd: −log10 of the molar value.

Columns and labels:
HLA-A*02:07 = assay: IEDB peptide-MHC binding, purified MHC/competitive/radioactivity; filed as Kd, often an IC50 or EC50 that approximates it; ≥ and ≤ were set here for values at or beyond the usual limits of such assays
HLA-A*02:01 = assay: as above
[1] = source organism: Hepatitis B virus
[2] = source organism: Hepatitis B virus adr4
[3] = source organism: Mycobacterium tuberculosis

## AAPLILSRI
HLA-A*02:07; source organism: Homo sapiens
  pKd: 5.18
HLA-A*02:01; source organism: Homo sapiens
  pKd: ≤ 4.52

## ALAETSYVKV
HLA-A*02:07; source organism: Homo sapiens
  pKd: ≤ 4.63

## ALDVYNGLL
HLA-A*02:07; source organism: Homo sapiens
  pKd: 5.22
HLA-A*02:01; source organism: Homo sapiens
  pKd: 7.02

## CILESLFRA
HLA-A*02:07; source organism: Homo sapiens
  pKd: 5.19
HLA-A*02:01; source organism: Homo sapiens
  pKd: 7.17

## GMPEGDLVYV
HLA-A*02:07; source organism: Homo sapiens
  pKd: 5.85

## ILKEPVHGV
HLA-A*02:07; source organism: HIV-1 M:B_MN
  pKd: ≤ 4.52

## KLPQLCTEL
HLA-A*02:07; source organism: Human papillomavirus 16
  pKd: 5.58

## LLFFWLDRSV
HLA-A*02:07; source organism: Homo sapiens
  pKd: ≤ 4.52

## LLPFVQWFV
HLA-A*02:07; [1]
  pKd: 7.06
HLA-A*02:01; [1]
  pKd: 8.07

## LLWKGEGAVV
HLA-A*02:07; source organism: HIV-1 M:B_MN
  pKd: 5.38
HLA-A*02:01; source organism: HIV-1 M:B_MN
  pKd: 6.95

## LTDAVKVMDL
HLA-A*02:07; source organism: Homo sapiens
  pKd: ≤ 4.52
HLA-A*02:01; source organism: Homo sapiens
  pKd: ≤ 4.52

## LVPFVQWFV
HLA-A*02:07; [2]
  pKd: 5.60

## NLDRSNDKV
HLA-A*02:07; source organism: Homo sapiens
  pKd: ≤ 4.52
HLA-A*02:01; source organism: Homo sapiens
  pKd: ≤ 4.52

## QIPSYKKLI
HLA-A*02:07; source organism: Homo sapiens
  pKd: ≤ 4.52
HLA-A*02:01; source organism: Homo sapiens
  pKd: ≤ 4.52

## QLDPARDVL
HLA-A*02:07; [2]
  pKd: ≤ 4.52

## RLPLVLPAV
HLA-A*02:07; [3]
  pKd: 8.05
HLA-A*02:01; [3]
  pKd: 8.28

## RMPEAAPPV
HLA-A*02:07; source organism: Homo sapiens
  pKd: 6.26

## SLDLASLIL
HLA-A*02:07; source organism: Homo sapiens
  pKd: 5.81
HLA-A*02:01; source organism: Homo sapiens
  pKd: 5.79

## SLDSWWTSV
HLA-A*02:07; [1]
  pKd: 6.63
HLA-A*02:01; [1]
  pKd: 7.30

## TLPSWATEDT
HLA-A*02:07; source organism: Homo sapiens
  pKd: ≤ 4.52
HLA-A*02:01; source organism: Homo sapiens
  pKd: ≤ 4.52

## WVDLRSLFL
HLA-A*02:07; source organism: HIV-1 M:B_MN
  pKd: ≤ 4.57
HLA-A*02:01; source organism: HIV-1 M:B_MN
  pKd: 4.78

## YLDLALMSV
HLA-A*02:07; [3]
  pKd: 7.36
HLA-A*02:01; [3]
  pKd: 8.25

## YLQLVFGIEV
HLA-A*02:07; source organism: Homo sapiens
  pKd: 5.98

## YMDDVVLGV
HLA-A*02:07; [1]
  pKd: 7.04

## YTAFTIPSI
HLA-A*02:07; source organism: HIV-1 M:B_MN
  pKd: ≤ 4.52
